The source of these data is US20250136717A1 (BYONDIS B V, published 2025).

Experiment [1] has as its target T1, Biotinylated Human TROP2/TACSTD2 Protein, His Avitag, Cat. No. TR2-H82E5 (human, UniProt P09758 27-274, biotinylated).
T1 construct: immobilized on SAX biosensor tips
T1 sequence (looked up): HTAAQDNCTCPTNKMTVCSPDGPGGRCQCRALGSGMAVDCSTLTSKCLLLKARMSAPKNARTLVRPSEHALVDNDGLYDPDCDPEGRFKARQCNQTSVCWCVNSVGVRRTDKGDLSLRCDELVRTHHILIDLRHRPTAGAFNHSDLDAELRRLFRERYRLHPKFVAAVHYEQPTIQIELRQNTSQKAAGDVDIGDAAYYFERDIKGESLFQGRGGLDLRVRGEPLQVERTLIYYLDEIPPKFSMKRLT
In words: BLI, TROP2 signal over Protein A signal.
From the text: (§1) To correct for differences in concentration between the analyte stocks, Protein A binding was estimated for the same samples.
(§2) The 70s report point corresponds to 10s of association, since a baseline is created in the first 60 seconds.

The target in experiment [2] is T2, Protein A (Protein A sensor tips, Forte Bio, 18-5012) (UniProt P38507 37-327).
T2 construct: used to correct for the concentration of the antibody samples
In words: BLI, Protein A tips. A general note: BLI is a label-free optical method that tracks binding on a fibre tip over time.
From the text: as §1, §2

Experiment [3] has as its target T1, Biotinylated Human TROP2/TACSTD2 …. In words: BLI, TROP2 on SAX tips.
From the text: as §1, §2
Experiment [4] has as its target T3, Biotinylated Human EpCAM/TROP1 Protein, Avitag His tag, Cat. No. EPM-H82E8 (human, UniProt P16422 24-265, biotinylated).
T3 construct: immobilized on SAX biosensor tips
T3 sequence (looked up): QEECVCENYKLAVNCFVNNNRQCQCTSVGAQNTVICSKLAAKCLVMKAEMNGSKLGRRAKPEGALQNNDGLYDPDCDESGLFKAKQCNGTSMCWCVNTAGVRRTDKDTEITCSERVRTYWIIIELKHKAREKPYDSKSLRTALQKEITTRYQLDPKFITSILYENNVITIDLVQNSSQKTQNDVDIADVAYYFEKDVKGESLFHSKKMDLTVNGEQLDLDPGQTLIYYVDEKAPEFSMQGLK
In words: BLI, EpCAM on SAX tips.
From the text: as §1, §2

Experiment [5] has as its target T2, Protein A (Protein A sensor tips, Forte …). Nature of the experiment: BLI, Protein A tips. This is another data set of the same source.
From the text: as §1, §2
In experiment [6] the target is T3, Biotinylated Human EpCAM/TROP1 Protein, …. Nature of the experiment: BLI, EpCAM signal over Protein A signal.
From the text: as §1, §2
In experiment [7] the target is T2, Protein A (Protein A sensor tips, Forte …). In words: BLI, Protein A tips. This is another data set of the same source.
From the text: as §1, §2
The target in experiment [8] is T3, Biotinylated Human EpCAM/TROP1 Protein, …. In words: BLI, EpCAM on SAX tips. This is another data set of the same source.
From the text: as §1, §2
Experiment [9] shares this target. Nature of the experiment: BLI, EpCAM signal over Protein A signal. The source holds these as a separate data set.
From the text: as §1, §2
Experiment [10] deals with T2, Protein A (Protein A sensor tips, Forte …). In words: BLI, Protein A tips. This is another data set of the same source.
From the text: as §1
The target is the same in experiment [11]. In words: BLI, Protein A tips. This is another data set of the same source.
From the text: as §1

Like-named read-outs stand apart in the source and are kept apart here.

B1: S307 (antibody, human IgG1, kappa)
heavy: not shown
light: QVQLVESGGGLVQPGGSLTLSCTASGFTLDHYDIGWFRQAPGKEREGVSCINNSDDDTYYADSVKGRFTIFMNNAKDTVYLQMNSLKPEDTAIYYCAEARGCKRGRYEYDFWGQGTQVTVSSGGGGSPLGLAGGGSDIQLTQSPSSLSASVGDRVSITCKASQDVSIAVAWYQQKPGKAPKLLIYSASYRYTGVPDRFSGSGSGTDFTLTISSLQPEDFAVYYCQQHYITPLTFGAGTKVEIKRTVAAPSVFIFPPSDEQLKSGTASVVCLLNNFYPREAKVQWKVDNALQSGNSQESVTEQDSKDSTYSLSSTLTLSKADYEKHKVYACEVTHQGLSSPVTKSFNRGEC
notes: also called masked sacituzumab Qg-BC2T-L9-HC / BC2-Nb-L9-LC
B1: the “TROP2/Protein A * 1000” value in experiment [1] amounted to 31.1. The “Protein A binding after 10 s of association” value (“Protein A binding after 10 s” below) in experiment [2] was determined as 1.11 nm. The “TROP2 binding after 10 s of association” value in [3] was found to be 0.0345 nm.

B2: S308 (antibody, human IgG1, kappa)
heavy: not shown
light: B1 light
notes: also called masked P41C sacituzumab Qg-BC2T-L9-HC (P41C) / BC2-Nb-L9-LC
Turning to B2, the “TROP2/Protein A * 1000” value in experiment [1] amounted to 23.8. Moreover, the “Protein A binding after 10 s” value in experiment [2] worked out at 0.646 nm. In addition, in [3], the “TROP2 binding after 10 s of association” value was determined as 0.0154 nm.

B3: S301 (antibody, human IgG1, kappa)
heavy: not shown
light: QVQLVESGGGLVQPGGSLTLSCTASGFTLDHYDIGWFRQAPGKEREGVSCINNSDDDTYYADSVKGRFTIFMNNAKDTVYLQMNSLKPEDTAIYYCAEARGCKRGRYEYDFWGQGTQVTVSSGGGGSPLGLAGGGSDIVMTQSALSNPVTLGESGSISCRSSKSLLHSNGITYLYWYLQKPGQSPQLLIYQMSNRASGVPDRFSSSGSGTDFTLKISRVEAEDVGVYYCAQNLELPRTFGQGTKLEMKRTVAAPSVFIFPPSDEQLKSGTASVVCLLNNFYPREAKVQWKVDNALQSGNSQESVTEQDSKDSTYSLSSTLTLSKADYEKHKVYACEVTHQGLSSPVTKSFNRGEC
notes: also called masked ING-1 Qg-BC2T-L9-HC / BC2-Nb-L9-LC
Consider B3, for which, in experiment [4], the “EpCAM binding after 10 s of association” value was 0.074 nm. The “Protein A binding after 10 s” value in experiment [5] was found to be 0.541 nm. The “EpCAM/Protein A * 1000” value in experiment [6] was 137.

B4: S302 (antibody, human IgG1, kappa)
heavy: not shown
light: B3 light
notes: also called masked P41C ING-1 Qg-BC2T-L9-HC (P41C) / BC2-Nb-L9-LC
As for B4, in experiment [4], the “EpCAM binding after 10 s of association” value turned out to be 0.0354 nm. Besides, the “Protein A binding after 10 s” value in [5] came out at 0.275 nm. Moreover, in [6], the “EpCAM/Protein A * 1000” value was found to be 129.

B5: S304 (antibody, human IgG1, kappa)
heavy: not shown
light: QVQLVESGGGLVQPGGSLTLSCTASGFTLDHYDIGWFRQAPGKEREGVSCINNSDDDTYYADSVKGRFTIFMNNAKDTVYLQMNSLKPEDTAIYYCAEARGCKRGRYEYDFWGQGTQVTVSSGGGGSPLGLAGGGSELQMTQSPSSLSASVGDRVTITCRTSQSISSYLNWYQQKPGQPPKLLIYWASTRESGVPDRFSGSGSGTDFTLTISSLQPEDSATYYCQQSYDIPYTFGQGTKLEIKRTVAAPSVFIFPPSDEQLKSGTASVVCLLNNFYPREAKVQWKVDNALQSGNSQESVTEQDSKDSTYSLSSTLTLSKADYEKHKVYACEVTHQGLSSPVTKSFNRGEC
notes: also called masked adecatumumab Qg-BC2T-L9-HC / BC2-Nb-L9-LC
With B5, in experiment [7], the “Protein A binding after 10 s” value was found to be 1.35 nm. For the same molecule, in experiment [8], the “EpCAM binding after 10 s of association” value is 0.0247 nm. For the same molecule, in experiment [9], the “EpCAM/Protein A * 1000” value amounted to 18.3.

B6: S305 (antibody, human IgG1, kappa)
heavy: not shown
light: B5 light
notes: also called masked P41C adecatumumab Qg-BC2T-L9-HC (P41C) / BC2-Nb-L9-LC
With B6, the “Protein A binding after 10 s” value in experiment [7] is 1.31 nm. The “EpCAM binding after 10 s of association” value in experiment [8] was found to be 0.0189 nm. Besides, the “EpCAM/Protein A * 1000” value in experiment [9] came to 14.5.

B7: S300 (antibody, human IgG1, kappa)
heavy: not shown
light: DIVMTQSALSNPVTLGESGSISCRSSKSLLHSNGITYLYWYLQKPGQSPQLLIYQMSNRASGVPDRFSSSGSGTDFTLKISRVEAEDVGVYYCAQNLELPRTFGQGTKLEMKRTVAAPSVFIFPPSDEQLKSGTASVVCLLNNFYPREAKVQWKVDNALQSGNSQESVTEQDSKDSTYSLSSTLTLSKADYEKHKVYACEVTHQGLSSPVTKSFNRGEC
notes: also called Anti-EpCAM ING-1 (naked)
Regarding B7, the “EpCAM binding after 10 s of association” value in experiment [4] is 0.947 nm. Besides, the “Protein A binding after 10 s” value in experiment [5] worked out at 0.95 nm. The “EpCAM/Protein A * 1000” value in experiment [6] came out at 997.

B8: S309 (antibody, human IgG1, kappa)
heavy: not shown
light: DIQMTQSPSSLSASVGDRVTITCKASQDIRKYLNWYQQKPGKAPKLLIYYATSLADGVPSRFSGSGSGTDYTFTISSLQPEDIATYYCLQHGESPYTFGQGTKLEITRTVAAPSVFIFPPSDEQLKSGTASVVCLLNNFYPREAKVQWKVDNALQSGNSQESVTEQDSKDSTYSLSSTLTLSKADYEKHKVYACEVTHQGLSSPVTKSFNRGEC
notes: also called Anti-TF MORAb-066, CNT0860 (naked)
For B8, the “Protein A binding after 10 s” value in [10] was found to be 1.79 nm.

B9: S303 (antibody, human IgG1, kappa)
heavy: not shown
light: ELQMTQSPSSLSASVGDRVTITCRTSQSISSYLNWYQQKPGQPPKLLIYWASTRESGVPDRFSGSGSGTDFTLTISSLQPEDSATYYCQQSYDIPYTFGQGTKLEIKRTVAAPSVFIFPPSDEQLKSGTASVVCLLNNFYPREAKVQWKVDNALQSGNSQESVTEQDSKDSTYSLSSTLTLSKADYEKHKVYACEVTHQGLSSPVTKSFNRGEC
notes: also called Anti-EpCAM adecatumumab (MT-201) (naked)
With B9, in [7], the “Protein A binding after 10 s” value was determined as 3.09 nm. For the same molecule, the “EpCAM binding after 10 s of association” value in experiment [8] came out at 1.85 nm. In addition, the “EpCAM/Protein A * 1000” value in experiment [9] amounted to 599.

B10: S310 (antibody, human IgG1, kappa)
heavy: not shown
light: QVQLVESGGGLVQPGGSLTLSCTASGFTLDHYDIGWFRQAPGKEREGVSCINNSDDDTYYADSVKGRFTIFMNNAKDTVYLQMNSLKPEDTAIYYCAEARGCKRGRYEYDFWGQGTQVTVSSGGGGSPLGLAGGGSDIQMTQSPSSLSASVGDRVTITCKASQDIRKYLNWYQQKPGKAPKLLIYYATSLADGVPSRFSGSGSGTDYTFTISSLQPEDIATYYCLQHGESPYTFGQGTKLEITRTVAAPSVFIFPPSDEQLKSGTASVVCLLNNFYPREAKVQWKVDNALQSGNSQESVTEQDSKDSTYSLSSTLTLSKADYEKHKVYACEVTHQGLSSPVTKSFNRGEC
notes: also called masked MORAb-066 Qg-BC2T-L9-HC / BC2-Nb-L9-LC
On to B10, for which the “Protein A binding after 10 s” value in [10] amounted to 0.993 nm.

B11: S311 (antibody, human IgG1, kappa)
heavy: not shown
light: B10 light
notes: also called masked P41C MORAb-066 Qg-BC2T-L9-HC (P41C) / BC2-Nb-L9-LC
In the case of B11, the “Protein A binding after 10 s” value in [10] is 1.33 nm.

B12: S313 (antibody)
heavy: not shown
light: QVQLVESGGGLVQPGGSLTLSCTASGFTLDHYDIGWFRQAPGKEREGVSCINNSDDDTYYADSVKGRFTIFMNNAKDTVYLQMNSLKPEDTAIYYCAEARGCKRGRYEYDFWGQGTQVTVSSGGGGSPLGLAGGGSDIQMTQSPPSLSASAGDRVTITCRASQGISSRLAWYQQKPEKAPKSLIYAASSLQSGVPSRFSGSGSGTDFTLTISSLQPEDFATYYCQQYNSYPYTFGQGTKLEIKRTVAAPSVFIFPPSDEQLKSGTASVVCLLNNFYPREAKVQWKVDNALQSGNSQESVTEQDSKDSTYSLSSTLTLSKADYEKHKVYACEVTHQGLSSPVTKSFNRGEC
notes: also called masked tisotumab Qg-BC2T-L9-HC / BC2-Nb-L9-LC
Take B12: in experiment [11], the “Protein A binding after 10 s” value is 1.73 nm.

B13: S314 (antibody)
heavy: not shown
light: B12 light
notes: also called masked P41C tisotumab Qg-BC2T-L9-HC (P41C) / BC2-Nb-L9-LC
For B13, the “Protein A binding after 10 s” value in experiment [11] was 1.37 nm.

B14: S306 (antibody, human IgG1, kappa)
heavy: not shown
light: DIQLTQSPSSLSASVGDRVSITCKASQDVSIAVAWYQQKPGKAPKLLIYSASYRYTGVPDRFSGSGSGTDFTLTISSLQPEDFAVYYCQQHYITPLTFGAGTKVEIKRTVAAPSVFIFPPSDEQLKSGTASVVCLLNNFYPREAKVQWKVDNALQSGNSQESVTEQDSKDSTYSLSSTLTLSKADYEKHKVYACEVTHQGLSSPVTKSFNRGEC
notes: also called Anti-TROP2 sacituzumab hRS7 (naked)
Turning to B14, the “TROP2/Protein A * 1000” value in [1] was 818. For the same molecule, the “Protein A binding after 10 s” value in experiment [2] turned out to be 0.915 nm. The “TROP2 binding after 10 s of association” value in experiment [3] was 0.749 nm.
